Source: patent US20260183373

How the values were obtained:
[1] = molecular target: Aβ(1-40) (UniProt P05067)
[2] = molecular target: Aβ(1-42) (UniProt P05067)

Sequence of MMP2 (P08253 110-660): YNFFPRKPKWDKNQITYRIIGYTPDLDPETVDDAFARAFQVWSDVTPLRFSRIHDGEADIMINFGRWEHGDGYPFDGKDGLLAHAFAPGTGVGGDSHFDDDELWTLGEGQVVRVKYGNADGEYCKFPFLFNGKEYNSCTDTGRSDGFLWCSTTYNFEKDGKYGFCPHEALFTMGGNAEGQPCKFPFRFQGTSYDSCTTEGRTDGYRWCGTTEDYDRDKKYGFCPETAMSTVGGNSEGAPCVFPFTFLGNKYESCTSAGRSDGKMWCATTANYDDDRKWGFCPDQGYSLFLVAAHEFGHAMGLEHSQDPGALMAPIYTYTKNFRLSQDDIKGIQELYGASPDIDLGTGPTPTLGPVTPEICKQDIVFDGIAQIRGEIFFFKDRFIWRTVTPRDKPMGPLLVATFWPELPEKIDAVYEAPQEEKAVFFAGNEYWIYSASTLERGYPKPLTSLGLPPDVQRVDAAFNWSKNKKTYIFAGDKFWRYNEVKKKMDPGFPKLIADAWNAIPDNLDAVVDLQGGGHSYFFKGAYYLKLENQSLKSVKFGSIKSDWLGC

Substance	stated: cleaves; Aβ cleavage assay, intact Aβ by ELISA (% untreated) [1]	stated: cleaves; Aβ cleavage assay, intact Aβ by ELISA (% untreated) [2]
NEP2	stays near 100 % up to about 10 nM, about 60 % near 30 nM, about 25 % near 100 nM, about 0 % from about 300 nM	stays near 90 % up to about 10 nM, about 60 % near 30 nM, about 35 % near 100 nM, about 0 % at the highest concentration (about 1000 nM)
ECE1	near 100 % up to about 10 nM, falls to about 30 % at the highest concentration (about 1000 nM), no lower plateau	near 100 % up to about 10 nM, falls only to about 60 % at the highest concentration (about 1000 nM), no lower plateau
MMP2	about 105 % up to about 30 nM, about 45 % near 100 nM, about 0 % from about 300 nM	drifts from about 90 % to about 65 % between 0.01 and 30 nM (no flat upper plateau), about 40 % near 100 nM, about 0 % from about 300 nM
MMP9	about 100 % up to about 30 nM, about 80 % near 100 nM, about 40 % near 300 nM, about 10 % at the highest concentration (about 1000 nM), no lower plateau	about 80 % up to about 30 nM, about 60 % near 100 nM, about 35 % near 300 nM, below 10 % at the highest concentration (about 1000 nM), no lower plateau
MTSP1	about 100 % up to about 30 nM, about 70 % near 100 nM, about 35 % near 300 nM, about 13 % at the highest concentration (about 1000 nM), no lower plateau	about 100 % up to about 10 nM, about 70 % near 100 nM, about 47 % near 300 nM, about 20 % at the highest concentration (about 1000 nM), no lower plateau
